{"source": "paper PMC11472053", "about": "“Structural basis of DNA recognition by BEN domain proteins reveals a role for oligomerization in unmethylated DNA selection by BANP” (Nucleic Acids Research, 2024)", "binders": {"B1": {"name": "12-CGCG (dsDNA)", "DNA 1": "ATCTCGCGAGAT", "DNA 2": "ATCTCGCGAGAT"}}, "key": {"BANP BEN WT": {"target": "T1, BANP BEN WT (human, UniProt Q8N9N5 205-325)", "T1 sequence": "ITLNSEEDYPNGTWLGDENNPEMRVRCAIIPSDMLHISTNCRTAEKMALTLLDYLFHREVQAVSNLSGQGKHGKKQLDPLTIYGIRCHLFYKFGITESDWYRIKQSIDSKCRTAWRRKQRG", "assay": "ITC; text gives 2.5 uM; ITC: 20 mM Tris pH 7.5, 200 mM NaCl, 2 mM beta-mercaptoethanol, 20 C; EMSA: 20 mM Tris pH 7.0, 200 mM NaCl, 2 mM DTT, 4 C, 1.2% agarose in TAE", "settings": "protein: recombinant; tags: His-SUMO or His-MBP, cleaved; chain copies: 2; blunt, self-complementary"}, "BANP full-length WT": {"target": "T2, BANP full-length WT (human, UniProt Q8N9N5 1-519)", "T2 sequence": "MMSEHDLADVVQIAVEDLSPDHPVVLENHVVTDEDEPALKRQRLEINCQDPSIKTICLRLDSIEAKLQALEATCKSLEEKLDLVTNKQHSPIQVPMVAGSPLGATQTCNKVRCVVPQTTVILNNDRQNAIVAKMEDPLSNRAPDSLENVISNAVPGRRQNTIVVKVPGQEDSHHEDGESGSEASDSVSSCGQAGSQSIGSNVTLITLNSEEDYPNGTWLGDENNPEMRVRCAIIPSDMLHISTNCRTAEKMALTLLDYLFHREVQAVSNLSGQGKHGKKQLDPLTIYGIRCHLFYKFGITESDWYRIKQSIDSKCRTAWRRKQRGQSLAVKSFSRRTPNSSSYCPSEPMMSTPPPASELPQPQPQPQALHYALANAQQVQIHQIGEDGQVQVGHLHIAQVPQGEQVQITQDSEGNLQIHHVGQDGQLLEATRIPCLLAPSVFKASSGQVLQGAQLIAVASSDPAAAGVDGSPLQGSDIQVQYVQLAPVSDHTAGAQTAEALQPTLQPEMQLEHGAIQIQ", "assay": "ITC; ITC: 20 mM Tris pH 7.5, 200 mM NaCl, 2 mM beta-mercaptoethanol, 20 C; EMSA: 20 mM Tris pH 7.0, 200 mM NaCl, 2 mM DTT, 4 C, 1.2% agarose in TAE", "settings": "protein: recombinant; tags: His-SUMO or His-MBP, cleaved; chain copies: 4; blunt, self-complementary"}, "BANP ΔCC": {"target": "T3, BANP ΔCC (human, UniProt Q8N9N5 90-519)", "T3 sequence": "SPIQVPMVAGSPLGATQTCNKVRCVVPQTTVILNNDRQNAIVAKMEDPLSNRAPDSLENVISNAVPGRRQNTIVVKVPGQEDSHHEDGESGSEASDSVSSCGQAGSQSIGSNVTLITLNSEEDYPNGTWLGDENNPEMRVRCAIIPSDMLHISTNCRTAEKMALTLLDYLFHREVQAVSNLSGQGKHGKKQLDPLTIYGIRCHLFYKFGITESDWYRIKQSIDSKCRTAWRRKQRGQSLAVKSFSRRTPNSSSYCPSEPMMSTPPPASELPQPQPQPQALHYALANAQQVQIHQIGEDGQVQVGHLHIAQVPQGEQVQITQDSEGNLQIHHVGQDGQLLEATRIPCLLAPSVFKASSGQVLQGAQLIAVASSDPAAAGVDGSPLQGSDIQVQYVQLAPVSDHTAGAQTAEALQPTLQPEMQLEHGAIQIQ", "assay": "ITC; ITC: 20 mM Tris pH 7.5, 200 mM NaCl, 2 mM beta-mercaptoethanol, 20 C; EMSA: 20 mM Tris pH 7.0, 200 mM NaCl, 2 mM DTT, 4 C, 1.2% agarose in TAE", "settings": "protein: recombinant; tags: His-SUMO or His-MBP, cleaved; blunt, self-complementary"}, "BANP BEN S310A": {"target": "T4, BANP BEN S310A (human, UniProt Q8N9N5 205-325, S310A)", "T4 sequence": "T1 sequence with S106A", "assay": "ITC; ITC: 20 mM Tris pH 7.5, 200 mM NaCl, 2 mM beta-mercaptoethanol, 20 C; EMSA: 20 mM Tris pH 7.0, 200 mM NaCl, 2 mM DTT, 4 C, 1.2% agarose in TAE", "settings": "protein: recombinant; tags: His-SUMO or His-MBP, cleaved; chain copies: 2; blunt, self-complementary"}, "BANP BEN R316A": {"target": "T5, BANP BEN R316A (human, UniProt Q8N9N5 205-325, R316A)", "T5 sequence": "T1 sequence with R112A", "assay": "ITC; ITC: 20 mM Tris pH 7.5, 200 mM NaCl, 2 mM beta-mercaptoethanol, 20 C; EMSA: 20 mM Tris pH 7.0, 200 mM NaCl, 2 mM DTT, 4 C, 1.2% agarose in TAE", "settings": "protein: recombinant; tags: His-SUMO or His-MBP, cleaved; chain copies: 2; blunt, self-complementary"}, "BANP BEN-DBD": {"target": "T6, BANP BEN-DBD (human, UniProt Q8N9N5 205-519)", "T6 sequence": "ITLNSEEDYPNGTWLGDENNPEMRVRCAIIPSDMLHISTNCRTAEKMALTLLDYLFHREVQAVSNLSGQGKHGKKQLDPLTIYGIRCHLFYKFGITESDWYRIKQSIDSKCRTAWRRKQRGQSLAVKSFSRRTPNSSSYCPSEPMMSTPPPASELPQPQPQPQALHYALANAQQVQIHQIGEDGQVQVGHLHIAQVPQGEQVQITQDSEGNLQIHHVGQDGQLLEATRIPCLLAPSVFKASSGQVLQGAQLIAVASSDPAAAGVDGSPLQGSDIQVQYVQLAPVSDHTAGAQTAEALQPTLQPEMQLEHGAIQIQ", "assay": "ITC; ITC: 20 mM Tris pH 7.5, 200 mM NaCl, 2 mM beta-mercaptoethanol, 20 C; EMSA: 20 mM Tris pH 7.0, 200 mM NaCl, 2 mM DTT, 4 C, 1.2% agarose in TAE", "settings": "protein: recombinant; tags: His-SUMO or His-MBP, cleaved; blunt, self-complementary"}, "BANP DBD": {"target": "T7, BANP DBD (human, UniProt Q8N9N5 361-519)", "T7 sequence": "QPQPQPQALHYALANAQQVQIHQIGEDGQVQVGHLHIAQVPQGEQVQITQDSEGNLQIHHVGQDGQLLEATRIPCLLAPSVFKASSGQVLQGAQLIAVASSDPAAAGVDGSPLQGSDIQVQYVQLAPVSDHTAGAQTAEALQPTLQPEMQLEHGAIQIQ", "assay": "EMSA; ITC: 20 mM Tris pH 7.5, 200 mM NaCl, 2 mM beta-mercaptoethanol, 20 C; EMSA: 20 mM Tris pH 7.0, 200 mM NaCl, 2 mM DTT, 4 C, 1.2% agarose in TAE", "settings": "protein: recombinant; tags: His-SUMO or His-MBP, cleaved; blunt, self-complementary"}}, "note": "Substitutions are numbered along the chain they refer to.", "data": [{"binder": "B1", "values": [{"measurement": "Kd", "setting": "BANP BEN WT", "result": "2.6 ± 0.4", "unit": "µM"}, {"measurement": "Kd", "setting": "BANP full-length WT", "result": "3.4 ± 0.6", "unit": "µM"}, {"measurement": "Kd", "setting": "BANP ΔCC", "result": "3.4 ± 0.5", "unit": "µM"}, {"measurement": "Kd", "setting": "BANP BEN S310A", "result": "12.8 ± 0.9", "unit": "µM"}, {"measurement": "Kd", "setting": "BANP BEN R316A", "result": "16.8 ± 1.6", "unit": "µM"}, {"measurement": "Kd", "setting": "BANP BEN-DBD", "result": "3.1 ± 0.3", "unit": "µM"}, {"measurement": "binding result", "setting": "BANP DBD", "result": "no binding"}]}]}
